Consider four molecules from paper PMC8874411, “Biochemical and Structural Insights into the Winged Helix Domain of P150, the Largest Subunit of the Chromatin Assembly Factor 1”.

Holding throughout (conditions): protein: recombinant; tags: C-terminal His6 (pETM13); blunt
Series [1] deals with T1, P150 721-860 (WHD) (Homo sapiens, UniProt Q13111 721-860). In words: EMSA; 1 uM DNA, Sybr Gold; fit with Hill slope; EMSA: 20 mM Tris-HCl, 100 mM NaCl, 1 mM DTT, pH 7.5, 45 min on ice; 6% PAGE in 0.5X TBE on ice.
T1 sequence (Q13111 721-860): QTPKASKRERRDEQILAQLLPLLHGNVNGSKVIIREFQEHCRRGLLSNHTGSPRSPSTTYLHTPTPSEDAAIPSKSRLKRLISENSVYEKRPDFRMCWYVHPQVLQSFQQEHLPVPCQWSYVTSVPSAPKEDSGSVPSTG
In the next series the target is P150 575-860 (ED + WHD) (Homo sapiens, UniProt Q13111 575-860). In words: EMSA; 2 uM DNA, 0-25 molar ratio; no complex detected; EMSA: 20 mM Tris-HCl, 100 mM NaCl, 1 mM DTT, pH 7.5, 45 min on ice; 6% PAGE in 0.5X TBE on ice.
P150 575-860 (ED + WHD), sequence (Q13111 575-860): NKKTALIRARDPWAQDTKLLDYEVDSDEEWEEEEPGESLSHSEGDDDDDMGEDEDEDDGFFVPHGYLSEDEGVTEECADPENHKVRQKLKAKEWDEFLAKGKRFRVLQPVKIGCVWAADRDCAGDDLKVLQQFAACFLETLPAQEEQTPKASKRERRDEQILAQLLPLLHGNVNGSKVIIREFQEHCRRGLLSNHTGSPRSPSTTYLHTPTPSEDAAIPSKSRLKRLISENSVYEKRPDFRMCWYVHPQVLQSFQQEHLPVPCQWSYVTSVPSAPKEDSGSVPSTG
Series [2] concerns the target T1, P150 721-860 (WHD). In words: EMSA; about 21 uM DNA; EMSA: 20 mM Tris-HCl, 100 mM NaCl, 1 mM DTT, pH 7.5, 45 min on ice; 6% PAGE in 0.5X TBE on ice.
Series [3] addresses T1, P150 721-860 (WHD). In words: EMSA; 21 uM DNA, 0-15 molar ratio, EtBr; EMSA: 20 mM Tris-HCl, 100 mM NaCl, 1 mM DTT, pH 7.5, 45 min on ice; 6% PAGE in 0.5X TBE on ice.

B1: 58 bp dsDNA (dsDNA)
DNA 1: ATACATTTTATGACTGGAAACTTTTTTGTACAACACTCCAATAAACATTTTGATTTTA
DNA 2: TAAAATCAAAATGTTTATTGGAGTGTTGTACAAAAAAGTTTCCAGTCATAAAATGTAT
B1: the Kd with P150 721-860 (WHD) [1] came to 10.4 ± 0.5 µM. For the same molecule, in the series with P150 575-860 (ED + WHD), the binding result is “no binding”.

B2: 16 bp AT rich dsDNA (dsDNA)
DNA 1: ATAATCGATATTCGTT
DNA 2: AACGAATATCGATTAT
Regarding B2, the binding result with P150 721-860 (WHD) [2] is recorded as “binds”.

B3: 16 bp dsDNA (dsDNA)
DNA 1: TGCTACCGATCGATAC
DNA 2: GTATCGATCGGTAGCA
With B3, the binding result with P150 721-860 (WHD) [3] was “binds”.

B4: 16 bp GC rich dsDNA (dsDNA)
DNA 1: ATCGCCCGCGCACGCA
DNA 2: TGCGTGCGCGGGCGAT
As for B4, the binding result with P150 721-860 (WHD) [2] is given as “binds”.
